Data: PMC7891180, “Exploring the Role of a Cytokinin-Activating Enzyme LONELY GUY in Unicellular Microalga Chlorella variabilis” (Frontiers in Plant Science, 2021)

Key:
[1] = substrate: C/C(=C\CNc1ncnc2c1ncn2[C@@H]1O[C@H](COP(=O)(O)O)[C@@H](O)[C@H]1O)CO; experiment: purified protein; assay type: biochemical, Chlorella variabilis; settings: 50 mM Tris, 1 mM MgCl2, 1 mM DTT, pH 7, 30 °C
[2] = substrate: CC(C)=CCNc1ncnc2c1ncn2[C@@H]1O[C@H](COP(=O)(O)O)[C@@H](O)[C@H]1O; experiment: purified protein; assay type: biochemical, Chlorella variabilis; settings: 50 mM Tris, 1 mM MgCl2, 1 mM DTT, pH 7, 30 °C

B1: CvarLOG1 (Chlorella variabilis) (protein)
chain: MADSQPASFRKIAVFCGASSGSNPLYIEAARLLGAEMARRGIGLVYGGGNVGLMGAVAEAVGSRLGPDQVIGVIPAALEPREISGTTVGEIRVVGSMHERKAMMFEEADAFIMIPGGYGTLDETLEITTWQQLGFHTKPVGLLNINGFFNKLLAFLDHATQEGFIRPSSRAILVSGDTPGELIDTLAAYQAPPSLLRLASEGKLGVHERG
notes: native protein 211 residues
Km [1]: 133.5 µM
Km [2]: 54.99 µM
